Assay results: publication PMC7895427, “A stapled peptide mimetic of the CtIP tetramerization motif interferes with double-strand break repair and replication fork protection” (Science Advances, 2021)
Positions of bridges follow the written chain, without caps; N, C: chain ends. Non-standard residues stand in square brackets, D forms with d. *: point of attachment. FITC = O=C1OC2(c3ccc(O)cc3Oc3cc(O)ccc32)c2ccc(NC(=S)*)cc21; R8 = C=CCCCCCC[C@@](C)(N)C(=O)O; S5 = C=CCCC[C@](C)(N)C(=O)O

B4: CtIP-NTD^18–145 (domain or fragment, human, UniProt Q99708 18-145, looked up)
chain: SDFKDLWTKLKECHDREVQGLQVKVTKLKQERILDAQRLEEFFTKNQQLREQQKVLHETIKVLEDRLRAGLCDRCAVTEEHMRKKQQEFENIRQQNLKLITELMNERNTLQEENKKLSEQLQQKIEND
notes: not shown: His6, N-terminal, cleaved; MBP, N-terminal, cleaved

How the values were obtained:
[1] = target: the molecule itself; assay: SEC-MALS; full-length CtIP 10 μM with 0, 20 or 250 μM peptide; 1 hour on ice, then 30 min at RT; Superose 6 10/300 in 20 mM tris (pH 8.0), 200 mM NaCl, 0.5 mM TCEP
[2] = target: the molecule itself; assay: cell-based or functional assay
CtIP-NTD^18–145 = target: B4; assay: fluorescence polarisation; FITC-labeled peptide (1 mg/ml stock diluted 1:10,000) mixed with serially diluted CtIP-NTD; 20 mM tris (pH 8.0), 150 mM NaCl; 10 min at RT; nonlinear regression with Hill slope; details: both partners purified
[3] = target: the molecule itself; assay: cross-linking; 1 or 2 μg recombinant protein with or without peptide in PBS, 30 min at RT; 100 μM disuccinimidyl suberate, 30 min at RT; SDS-PAGE and staining

B1: full-length recombinant CtIP wild type (natural protein, human, UniProt Q99708 1-897, looked up)
chain: MNISGSSCGSPNSADTSSDFKDLWTKLKECHDREVQGLQVKVTKLKQERILDAQRLEEFFTKNQQLREQQKVLHETIKVLEDRLRAGLCDRCAVTEEHMRKKQQEFENIRQQNLKLITELMNERNTLQEENKKLSEQLQQKIENDQQHQAAELECEEDVIPDSPITAFSFSGVNRLRRKENPHVRYIEQTHTKLEHSVCANEMRKVSKSSTHPQHNPNENEILVADTYDQSQSPMAKAHGTSSYTPDKSSFNLATVVAETLGLGVQEESETQGPMSPLGDELYHCLEGNHKKQPFEESTRNTEDSLRFSDSTSKTPPQEELPTRVSSPVFGATSSIKSGLDLNTSLSPSLLQPGKKKHLKTLPFSNTCISRLEKTRSKSEDSALFTHHSLGSEVNKIIIQSSNKQILINKNISESLGEQNRTEYGKDSNTDKHLEPLKSLGGRTSKRKKTEEESEHEVSCPQASFDKENAFPFPMDNQFSMNGDCVMDKPLDLSDRFSAIQRQEKSQGSETSKNKFRQVTLYEALKTIPKGFSSSRKASDGNCTLPKDSPGEPCSQECIILQPLNKCSPDNKPSLQIKEENAVFKIPLRPRESLETENVLDDIKSAGSHEPIKIQTRSDHGGCELASVLQLNPCRTGKIKSLQNNQDVSFENIQWSIDPGADLSQYKMDVTVIDTKDGSQSKLGGETVDMDCTLVSETVLLKMKKQEQKGEKSSNEERKMNDSLEDMFDRTTHEEYESCLADSFSQAADEEEELSTATKKLHTHGDKQDKVKQKAFVEPYFKGDERETSLQNFPHIEVVRKKEERRKLLGHTCKECEIYYADMPAEEREKKLASCSRHRFRYIPPNTPENFWEVGFPSTQTCMERGYIKEDLDPCPRPKRRQPYNAIFSPKGKEQKT
notes: human CtIP, full length (amino acids 1 to 897); also called CtIP-wt
stoichiometry N [1]: 4 | HR frequency (percentage of GFP-positive U2OS EGFP-HR reporter cells after I-SceI) with 10 μM SP^18–28 for 24 hours [2]: ~3 fold decrease

{FITC}-S[R8]FKDLWT[S5]LK-NH2 (staple 2-9) [FITC-labeled SP^18–28 (hydrocarbon-stapled peptide of CtIP residues 18 to 28)]
Kd (CtIP-NTD^18–145): 209 nM

B2: CtIP-NTD^(18–145, L27E) (domain or fragment, human, UniProt Q99708 18-145, looked up)
chain: SDFKDLWTKEKECHDREVQGLQVKVTKLKQERILDAQRLEEFFTKNQQLREQQKVLHETIKVLEDRLRAGLCDRCAVTEEHMRKKQQEFENIRQQNLKLITELMNERNTLQEENKKLSEQLQQKIEND
notes: as for B4
stoichiometry N [3]: 2

B3: CtIP-NTD^32–145 (domain or fragment, human, UniProt Q99708 32-145, looked up)
chain: DREVQGLQVKVTKLKQERILDAQRLEEFFTKNQQLREQQKVLHETIKVLEDRLRAGLCDRCAVTEEHMRKKQQEFENIRQQNLKLITELMNERNTLQEENKKLSEQLQQKIEND
notes: also called N-terminal coiled-coil domain; not shown: His6, N-terminal, cleaved; MBP, N-terminal, cleaved
stoichiometry N [3]: 2

B4
stoichiometry N [3]: 4

{FITC}-S[R8]FKDLWT[S5]LKECH-NH2 (staple 2-9) [FITC-labeled SP^18–31 (hydrocarbon-stapled peptide spanning the entire CtIP tetramerization motif)]
fold higher Kd than that of SP^18–28 on the same target (CtIP-NTD^18–145): ~100 fold

B5: full-length recombinant CtIP-L27E (natural protein, human, UniProt Q99708 1-897, looked up)
chain: MNISGSSCGSPNSADTSSDFKDLWTKEKECHDREVQGLQVKVTKLKQERILDAQRLEEFFTKNQQLREQQKVLHETIKVLEDRLRAGLCDRCAVTEEHMRKKQQEFENIRQQNLKLITELMNERNTLQEENKKLSEQLQQKIENDQQHQAAELECEEDVIPDSPITAFSFSGVNRLRRKENPHVRYIEQTHTKLEHSVCANEMRKVSKSSTHPQHNPNENEILVADTYDQSQSPMAKAHGTSSYTPDKSSFNLATVVAETLGLGVQEESETQGPMSPLGDELYHCLEGNHKKQPFEESTRNTEDSLRFSDSTSKTPPQEELPTRVSSPVFGATSSIKSGLDLNTSLSPSLLQPGKKKHLKTLPFSNTCISRLEKTRSKSEDSALFTHHSLGSEVNKIIIQSSNKQILINKNISESLGEQNRTEYGKDSNTDKHLEPLKSLGGRTSKRKKTEEESEHEVSCPQASFDKENAFPFPMDNQFSMNGDCVMDKPLDLSDRFSAIQRQEKSQGSETSKNKFRQVTLYEALKTIPKGFSSSRKASDGNCTLPKDSPGEPCSQECIILQPLNKCSPDNKPSLQIKEENAVFKIPLRPRESLETENVLDDIKSAGSHEPIKIQTRSDHGGCELASVLQLNPCRTGKIKSLQNNQDVSFENIQWSIDPGADLSQYKMDVTVIDTKDGSQSKLGGETVDMDCTLVSETVLLKMKKQEQKGEKSSNEERKMNDSLEDMFDRTTHEEYESCLADSFSQAADEEEELSTATKKLHTHGDKQDKVKQKAFVEPYFKGDERETSLQNFPHIEVVRKKEERRKLLGHTCKECEIYYADMPAEEREKKLASCSRHRFRYIPPNTPENFWEVGFPSTQTCMERGYIKEDLDPCPRPKRRQPYNAIFSPKGKEQKT
notes: human CtIP, full length (amino acids 1 to 897), with L27E; L27E was introduced by site-directed mutagenesis of the 3xFLAG-CtIP-wt expression vector
stoichiometry N [1]: 2
